# Reference: article PMC10933270, “The eukaryotic-like characteristics of small GTPase, roadblock and TRAPPC3 proteins from Asgard archaea” (Communications Biology, 2024)
# How the values were obtained:
# [1] = biological target: Odin-RBLC7, truncated roadblock (RBLC7) protein from Odin LCB_4 (Odinarchaeota LCB_4); experiment: crystal structure; Odin-RBLC7 crystals in 200 mM MgSO4, 20% PEG 4000, 10% glycerol, 20 °C; molecular replacement with dynein DLRB1 (PDB 3L7H)
# [2] = biological target: MKD1-RB, roadblock (RB) protein from Loki MKD1 (Candidatus Prometheoarchaeum syntrophicum strain MK-D1); experiment: crystal structure; MKD1-RB crystals in 100 mM MES, pH 6.0, 250 mM zinc acetate dihydrate, 6% wt/vol PEG 3000, 20 °C; solved using the Thor-RB structure
# Thor-Rab [3] = biological target: T1, Thor-Rab (Candidatus Thorarchaeota archaeon SMTZ1-45, UniProt A0A135VL07); experiment: phosphate release assay (EnzChek), GTP hydrolysis; assay type: biochemical; conditions: 1 mM GTP, 2 mM MgCl2, 20 mM HEPES pH 7.5, 150 mM NaCl, 25 °C, 2 h; no GAP or GEF; heat-denatured control
# T1 construct: codon-optimized gene in pSY5, N-terminal His8 tag removed by HRV 3C; E. coli expression; naturally lacks the C-terminal cysteine extension; two molecules in the asymmetric unit
# T1 sequence (A0A135VL07 1-182): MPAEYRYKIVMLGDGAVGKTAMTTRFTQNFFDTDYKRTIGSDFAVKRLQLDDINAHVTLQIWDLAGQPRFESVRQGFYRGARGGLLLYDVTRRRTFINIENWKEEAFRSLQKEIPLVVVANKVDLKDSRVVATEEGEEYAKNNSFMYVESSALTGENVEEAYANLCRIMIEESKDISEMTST
# Rab11B = biological target: T2, Rab11B (Homo sapiens, UniProt Q15907); experiment: phosphate release assay (EnzChek), GTP hydrolysis; assay type: biochemical; conditions: 1 mM GTP, 2 mM MgCl2, 20 mM HEPES pH 7.5, 150 mM NaCl, 25 °C, 2 h; no GAP or GEF; heat-denatured control
# T2 construct: codon-optimized gene in pSY5, N-terminal His8 tag with HRV 3C site (tag removed); E. coli expression
# T2 sequence (Q15907 1-218): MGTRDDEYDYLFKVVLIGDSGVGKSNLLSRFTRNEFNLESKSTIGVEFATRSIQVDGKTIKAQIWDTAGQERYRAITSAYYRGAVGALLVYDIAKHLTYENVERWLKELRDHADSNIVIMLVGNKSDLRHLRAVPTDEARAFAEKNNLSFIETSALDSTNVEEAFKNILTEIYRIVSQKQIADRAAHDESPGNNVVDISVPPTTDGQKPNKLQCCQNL
# [4] = biological target: Thor-RB, predicted roadblock (RB) protein from Thor SMTZ1-45 (Candidatus Thorarchaeota archaeon SMTZ1-45); experiment: crystal structure; Thor-RB crystals in 100 mM sodium acetate trihydrate, pH 5.0, 200 mM LiCl, 16% wt/vol PEG 6000, 20 °C; molecular replacement with MglB (PDB 3T1S)
# Thor-Rab [5] = biological target: T1, Thor-Rab; experiment: X-ray crystallography, co-crystal without Mg2+ ([…] Å) and soak with Mg2+ ([…] Å); conditions: co-crystal 10 mM GTPγS, one copy mixed GDP/GTPγS, second copy full GTPγS; soak of GDP crystal with GTPγS and MgCl2; pH 5.5; nucleotide-binding site
# [6] = biological target: SMTZ1-45 Thor-TRAPPC3, TRAPPC3-like protein from Thor SMTZ1-45 (Candidatus Thorarchaeota archaeon SMTZ1-45); experiment: crystal structure; Thor-TRAPPC3 crystals in 100 mM HEPES, pH 7.5, 250 mM magnesium formate-dihydrate, 18% wt/vol PEG3350, 20 °C; molecular replacement with the AB25 Thor-TRAPPC3 model (7YH2)
molecule,measurement,setting,value
"Odin-RBLC7, truncated roadblock (RBLC7) protein from Odin LCB_4 (natural protein)",stoichiometry N,[1],2
"MKD1-RB, roadblock (RB) protein from Loki MKD1 (natural protein)",stoichiometry N,[2],2
Nc1nc2c(ncn2[C@@H]2O[C@H](COP(=O)(O)OP(=O)(O)OP(=O)(O)O)[C@@H](O)[C@H]2O)c(=O)[nH]1 [GTP],"phosphate release assay (EnzChek), GTP hydrolysis",Thor-Rab [3],SMTZ1-45 Thor-Rab generated similar levels of phosphate in comparison to human Rab11B
same,"phosphate release assay (EnzChek), GTP hydrolysis",Rab11B,The GTPase activity of human Rab11B and SMTZ1-45 Thor-Rab were measured
"Thor-RB, predicted roadblock (RB) protein from Thor SMTZ1-45 (natural protein)",stoichiometry N,[4],2
Nc1nc2c(ncn2[C@@H]2O[C@H](COP(=O)(O)OP(=O)(O)OP(O)(O)=S)[C@@H](O)[C@H]2O)c(=O)[nH]1 [GTP-γS],"X-ray crystallography, co-crystal without Mg2+ (1.75 Å) and soak with Mg2+ (1.95)",Thor-Rab [5],full occupancy for GTP-γS in the second copy
"SMTZ1-45 Thor-TRAPPC3, TRAPPC3-like protein from Thor SMTZ1-45 (natural protein)",stoichiometry N,[6],2
